T1: NKG2D on cells (UniProt P26718 1-216, limits assumed)
T1 construct: whole, on cells
T1 sequence (looked up): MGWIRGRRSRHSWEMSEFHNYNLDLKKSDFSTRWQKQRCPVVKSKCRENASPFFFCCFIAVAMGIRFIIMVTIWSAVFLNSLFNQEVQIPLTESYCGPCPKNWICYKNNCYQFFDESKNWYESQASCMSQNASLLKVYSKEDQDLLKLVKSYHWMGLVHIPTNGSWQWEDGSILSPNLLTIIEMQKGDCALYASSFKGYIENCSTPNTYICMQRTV

T2: NKG2D-ECD-hFc (human, UniProt P26718 73-216)
T2 construct: extracellular domain; Lot 20200413002, 'provided by CP'; also called hNKG2D-ECD-hFc; not shown: human Fc (hFc)
T2 sequence (looked up): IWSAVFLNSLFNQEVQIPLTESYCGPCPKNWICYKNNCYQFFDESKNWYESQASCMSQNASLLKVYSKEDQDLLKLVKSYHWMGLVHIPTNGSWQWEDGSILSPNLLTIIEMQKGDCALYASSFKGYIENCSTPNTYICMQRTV

B1: IM-1273 bi-NKG2A scFv Tribody, CD3 mutant variant (other)
heavy: GGSGGSEVQLVESGGGLVQPGGSLRLSCAASGFTFNTYAMNWVRQAPGKGLEWVARIGSGGNGYATYYADSVKDRFTISRDDSKNTLYLQMNSLRAEDTAVYYCVRHGNFGASARSWFAYWGQGTMVTVSSASTKGPSVFPLAPSSKSTSGGTAALGCLVKDYFPEPVTVSWNSGALTSGVHTFPAVLQSSGLYSLSSVVTVPSSSLGTQTYICNVNHKPSNTKVDKRVEPKSCPPCGGGGSDIQMTQSPSSLSASVGDRVTITCRASENIYSYLAWYQQKPGKAPKLLIYNAKTLAEGVPSRFSGSGSGTDFTLTISSLQPEDFATYYCQHHYGTPRTFGGGTKVEIKGGGGSGGGGSGGGGSQVQLVQSGAEVKKPGASVKVSCKASGYTFTSYWMNWVRQAPGQGLEWMGRIDPYDSETHYAQKLQGRVTMTTDTSTSTAYMELRSLRSDDTAVYYCARGGYDFDVGTLYWFFDVWGQGTTVTVSSGGGGSDIQMTQSPSSLSASVGDRVTITCRASENIYSYLAWYQQKPGKAPKLLIYNAKTLAEGVPSRFSGSGSGTDFTLTISSLQPEDFATYYCQHHYGTPRTFGGGTKVEIKGGGGSGGGGSGGGGSQVQLVQSGAEVKKPGASVKVSCKASGYTFTSYWMNWVRQAPGQGLEWMGRIDPYDSETHYAQKLQGRVTMTTDTSTSTAYMELRSLRSDDTAVYYCARGGYDFDVGTLYWFFDVWGQGTTVTVSS
light: GGSGGSQAVVTQEPSLTVSPGGTVTLTCRSSTGAVTRGNAANWVQQKPGQAPRGLIGGTNARAPGTPARFSGSLLGGKAALTLSGVQPEDEAEYYCALGYSGLWVFGGGTKLTVLGQPKAAPSVTLFPPSSEELQANKATLVCLISDFYPGAVTVAWKADSSPVKAGVETTTPSKQSNNKYAASSYLSLTPEQWKSHRSYSCQVTHEGSTVEKTVAPTECPPCSGGGSDIQMTQSPSSLSASVGDRVTITCRASQGISNYLAWFQQKPGKAPKSLIYRANRLQSGVPSRFSGSGSGTDFTLTISSLQPEDVATYYCLQYDDFPWTFGQGTKLEIKGGGGSGGGGSGGGGSGGGGSQVQLVQSGAEVKKPGASVKVSCKASGYTFTSFWMHWVRQAPGQGLEWMGRIDPNRGGTEYNEKAKSRVTMTADKSTSTAYMELSSLRSEDTAVYYCAGGNPYYPMDYWGQGTTVTVSS
notes: Two anti-NKG2A scFv in tandem, CD3 arm mutated; also called IM-1273 CD3 mutant variant
B2: IM-1091 Tribody, NKG2D mutant variant (other)
heavy: GGSGGSEVQLVESGGGLVQPGGSLRLSCAASGFTFNTYAMNWVRQAPGKGLEWVARIRSKYNNYATYYADSVKDRFTISRDDSKNTLYLQMNSLRAEDTAVYYCVRHGNFGNSYVSWFAYWGQGTMVTVSSASTKGPSVFPLAPSSKSTSGGTAALGCLVKDYFPEPVTVSWNSGALTSGVHTFPAVLQSSGLYSLSSVVTVPSSSLGTQTYICNVNHKPSNTKVDKRVEPKSCPPCGGGGSQSALTQPASVSGSPGQSITISCSGSSSNIGNNAVNWYQQLPGKAPKLLIYADDLLPSGVSDRFSGSKSGTSAFLAISGLQSEDEADYYCAAWDDSLNGPVFGGGTKLTVLGGGGSGGGGSGGGGSGGGGSQVQLVESGGGLVKPGGSLRLSCAASGFTFSSYGMHWVRQAPGKGLEWVAFIRYDGSNKYYADSVKGRFTISRDNSKNTLYLQMNSLRAEDTAVYYCAKDAGEGDGTYFDYWGQGTTVTVSS
light: GGSGGSQAVVTQEPSLTVSPGGTVTLTCRSSTGAVTTSNYANWVQQKPGQAPRGLIGGTNKRAPGTPARFSGSLLGGKAALTLSGVQPEDEAEYYCALWYSNLWVFGGGTKLTVLGQPKAAPSVTLFPPSSEELQANKATLVCLISDFYPGAVTVAWKADSSPVKAGVETTTPSKQSNNKYAASSYLSLTPEQWKSHRSYSCQVTHEGSTVEKTVAPTECPPCSGGGSDIQMTQSPSSLSASVGDRVTITCRASQGISNYLAWFQQKPGKAPKSLIYRANRLQSGVPSRFSGSGSGTDFTLTISSLQPEDVATYYCLQYDDFPWTFGQGTKLEIKGGGGSGGGGSGGGGSGGGGSQVQLVQSGAEVKKPGASVKVSCKASGYTFTSFWMHWVRQAPGQGLEWMGRIDPNRGGTEYNEKAKSRVTMTADKSTSTAYMELSSLRSEDTAVYYCAGGNPYYPMDYWGQGTTVTVSS
notes: CD3/5T4/NKG2D Tribody with mutated anti-NKG2D arm

Columns and labels:
NKG2A-CD94-ECD-hFc [1] = biological target: T3, NKG2A-CD94-ECD-hFc (human, UniProt P26715 94-233; Q13241 32-179, limits assumed); assay: ELISA on coated NKG2A-CD94-ECD-hFc (FIG. 43D)
T3 construct: extracellular domain; Lot 20200724002, 'provided by CP'; the two-chain layout here is only the reading of the name; also called human NKG2A (recombinant); NKG2A antigen; not shown: human Fc (hFc)
T3 sequence (P26715 94-233 limits assumed, chain 1 of 2): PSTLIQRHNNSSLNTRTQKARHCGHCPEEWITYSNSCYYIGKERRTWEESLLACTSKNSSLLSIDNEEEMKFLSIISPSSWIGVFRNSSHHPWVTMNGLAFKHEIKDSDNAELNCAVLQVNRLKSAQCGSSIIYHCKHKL
T3 sequence (Q13241 32-179 limits assumed, chain 2 of 2): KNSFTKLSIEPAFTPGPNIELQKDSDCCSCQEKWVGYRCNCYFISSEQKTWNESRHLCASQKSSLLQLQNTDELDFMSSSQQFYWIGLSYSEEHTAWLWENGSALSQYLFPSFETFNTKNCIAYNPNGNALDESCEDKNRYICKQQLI
Procedure: (§1) Methods: ELISA binding of Tribody/ProTribody antibody constructs to antigens: Dilute target protein (hCD3epsilon-His (cat # 10977-H08S, supplier Sino Biological); h5T4-His (cat# 19845-H08H, supplier Sino Biological); NKG2A-CD94-ECD-hFc, Lot:20200724002, provided by CP; or NKG2D-ECD-hFc, Lot: 20200413002, provided by CP) into PBS with final concentration of 0.01 µg/mL for hCD3epsilon-His, 0.3 µg/mL for h5T4-His, 1 µg/mL for NKG2A-CD94-ECD-hFc and 0.7 µg/mL for hNKG2D-ECD-hFc respectively and coat 100 µL/well on ELISA plate (cat: 9018, supplier Corning) respectively. Incubate O/N, 4° C. The plates were blocked with 250 µL 1% BSA in PBST for 1 hr at 37° C.Wash 4 times with PBST. All the washes are done using Biotek (Elx 405). All the Tribody set antibodies were diluted to 400 nM and make 4-fold serially dilutions (12 points, including 0 point). Add 100 µL/well diluted antibody constructs solution to plate, incubate for 1 hr at 37° C.Wash 4 times with PBST. Add 100 µL/well anti-human kappa light chain-HRP (1:10000), incubate for 0.5 hr at 37° C. Wash 4 times with PBST. 100 µL/well of TMB substrate was added and incubated at room temperature for 5 min. 100 µL/well of 1N HCl to terminate reaction. Plates were read using ELISA plate reader at 450 nm wavelength (instrunet SpectraMax M5e). Data Analysis was performed using Graphpad prism 5 software by using nonlinear regression (curve fit): log (agonist) vs. response, agonist is antibody concentration (nM) and response is OD value.

[2] = biological target: T4, NKG2A/CD94 on CHO cells (CHOK1-NKG2A-CD94) (human, UniProt P26715 1-233; Q13241 1-179, limits assumed); assay: FACS on CHO cells over-expressing human NKG2A (FIG. 45F)
T4 construct: whole, on cells; also called CHO cells over-expressing NKG2A/CD94; CHO cell line over expressing ectopic NKG2A
T4 sequence (P26715 whole entry, chain 1 of 2): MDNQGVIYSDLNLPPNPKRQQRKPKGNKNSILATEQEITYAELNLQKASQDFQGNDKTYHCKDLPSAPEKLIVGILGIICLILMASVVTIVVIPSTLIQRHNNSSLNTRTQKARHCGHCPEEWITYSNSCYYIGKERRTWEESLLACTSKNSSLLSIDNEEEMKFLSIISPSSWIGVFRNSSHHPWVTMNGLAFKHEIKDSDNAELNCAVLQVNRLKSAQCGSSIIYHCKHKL
T4 sequence (Q13241 whole entry, chain 2 of 2): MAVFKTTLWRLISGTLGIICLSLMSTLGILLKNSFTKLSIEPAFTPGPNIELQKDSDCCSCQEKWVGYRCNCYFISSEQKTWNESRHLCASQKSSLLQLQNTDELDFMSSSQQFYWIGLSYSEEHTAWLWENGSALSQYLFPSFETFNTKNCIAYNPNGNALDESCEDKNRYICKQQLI
Procedure: (§2) Then wash the cells 3 times with 170 µL FACS buffer. Re-suspend the cells at 100 µL/well with secondary antibody (goat anti-human Ig Fab-FITC, Cat # 2085-02, Southern biotech) with 1:400 dilution and incubate the plate for 30 min at 4° C. in dark. Centrifuge the plate at 2000 rpm, 4° C. for 5 min and discard supernatant. Then wash the cells 3 times with FACS buffer and analyze the sample with FACS verse. The fluorescence intensity of the staining was measured using flow cytometer (BD, FACSVerse). The geometric mean fluorescence intensity (GMFI; median fluorescence intensity (MFI)) of set antibodies staining was calculated (BD FACSuite software). Dose-response curves were generated and EC50s for thetrispecific variants binding were calculated using GraphPad Prism software.
Results: The expressed trispecific constructs were analyzed for their binding to cells expressing endogenous CD3ε, 5T4 and NKG2A/NKG2D. […] (FIG. 45F).

NKG2A-CD94-ECD-hFc [3] = biological target: T3, NKG2A-CD94-ECD-hFc; assay: ELISA on coated NKG2A-CD94-ECD-hFc (FIG. 43D), reference IM-1062
Procedure: as §1, with “Data Analysis was performed using Graphpad prism 5 software by using nonlinear regression (curve fit): log (agonist) vs. response, agonist is antibody concentration (nM) and response is OD value.” left out

[4] = biological target: T4, NKG2A/CD94 on CHO cells …; assay: FACS on CHO cells over-expressing human NKG2A (FIG. 45F), reference IM-1062
Procedure: as §2, with “Suspension cultured cells was harvested directly, and adherent cell were digested using TrypLE Express Enzyme (cat: 12604-013, supplier Life technologies). Centrifuge at 1000 rpm for 5 min and discard the supernatant. Cells are suspended at a concentration of 2×10⁶/mL in FACS buffer (2% FBS in PBS) and add 100 µL/well of cell suspension to the plate (cat #3799, supplier Corning). Centrifuging the plates at 2000 rpm for 5 min and discard the supernatant. Re-suspend the cells in 100 µL/well of Tribody set antibodies (400 nM start, 4-fold dilution, 8 point including 0 point) and incubate the plate for 60 min at 4° C. Centrifuge the plate at 2000 rpm, 4° C. for 5 min and discard supernatant. Then” for “Then”, “Then wash the cells 3 times with FACS buffer and analyze the sample with FACS verse.” left out

NKG2D on cells = biological target: T1, NKG2D on cells; assay: FACS, data not shown
NKG2D-ECD-hFc = biological target: T2, NKG2D-ECD-hFc; assay: ELISA, data not shown
Procedure: as §1, with “Data Analysis was performed using Graphpad prism 5 software by using nonlinear regression (curve fit): log (agonist) vs. response, agonist is antibody concentration (nM) and response is OD value.” left out

Row | Binder | EC50 (NKG2A-CD94-ECD-hFc [1]) [pM] | EC50 [2] [pM] | fold improved binding affinity against IM-1062 (NKG2A-CD94-ECD-hFc [3]) [fold] | fold improved binding affinity against IM-1062 [4] [fold] | binding result (NKG2D on cells) | binding result (NKG2D-ECD-hFc)
1 | B1 | 100 | 200 | ~60 | ~80 |  | 
2 | B2 |  |  |  |  | no binding | no binding

Reference: patent US20230312753A1 (IMMUNORIZON, published 2023)
